Measured values as given in US20060140968A1 (GREEN PEPTIDE, published 2006).

T1: HLA-A2402 (human, UniProt P04439-2 25-302 at identity 0.92))
T1 MHC heavy: not shown

T2: HLA-A0201 (human, UniProt P04439 25-302 at identity 0.94))
T2 MHC heavy: not shown

B1: SART-3 peptide "315-323" Ala-Tyr-Ile-Asp-Phe-Glu-Met-Lys-Ile (peptide)
peptide: AYIDFEMKI
B2: SART-3 peptide "426-434" Asp-Tyr-Leu-Arg-Arg-Arg-Val-Asp-Phe (peptide)
peptide: DYLRRRVDF
B3: SART-3 peptide "448-456" Ala-Phe-Thr-Arg-Ala-Leu-Glu-Tyr-Leu (peptide)
peptide: AFTRALEYL
B4: SART-3 peptide "172-181" Leu-Phe-Glu-Lys-Ala-Val-Lys-Asp-Tyr-Ile (peptide)
peptide: LFEKAVKDYI
B5: SART-3 peptide "284-292" Asn-Tyr-Asn-Lys-Ala-Leu-Gln-Gln-Leu (peptide)
peptide: NYNKALQQL
B6: SART-3 peptide "109-118" Val-Tyr-Asp-Tyr-Asn-Cys-His-Val-Asp-Leu (peptide)
peptide: VYDYNCHVDL
B7: SART-3 peptide "416-425" (peptide)
peptide: DYVEIWQAYL
B8: SART-3 peptide "152-160" (peptide)
peptide: WLHDEISMA
B9: SART-3 peptide "249-257" (peptide)
peptide: SLFRRQLAI
B10: SART-3 peptide "302-310" (peptide)
peptide: LLQAEAPRL
B11: SART-3 peptide "309-317" (peptide)
peptide: RLAEYQAYI
B12: SART-3 peptide "386-394" (peptide)
peptide: LLAMERHGV

Target: T1, HLA-A2402
Assay: cell-based or functional assay

B1 and B2 are within 1.5-fold of each other in “IFN-γ in the supernatant (pg/ml) produced by KE-4CTL on HLA-A2402-transfected VA-13 cells pulsed with 10 µM peptide (no peptide: 677)” value (“IFN-γ in the supernatant … (no peptide: 677)” for short): 880 pg/mL for the first, 833 pg/mL for the second.

B3 and B4 are within 1.5-fold of each other in “IFN-γ in the supernatant … (no peptide: 677)” value: 754 pg/mL for the first, 830 pg/mL for the second.

B5 and B6 are within 1.5-fold of each other in “IFN-γ in the supernatant … (no peptide: 677)” value: 794 pg/mL for the first, 928 pg/mL for the second.

In the case of B7, the “IFN-γ in the supernatant … (no peptide: 677)” value is reported as 731 pg/mL.

Target: T2, HLA-A0201
Assay: cell-based or functional assay

B8 and B9 are within 1.5-fold of each other in “IFN-γ in the supernatant (pg/ml) produced by OK-CTL on HLA-A0201-positive T2 cells pulsed with 10 µM peptide, value with no peptide subtracted” value (“IFN-γ … with no peptide subtracted” for short): 162 pg/mL for the first, 209 pg/mL for the second.

B10 and B11 are within 1.5-fold of each other in “IFN-γ … with no peptide subtracted” value: 190 pg/mL for the first, 231 pg/mL for the second.

In the case of B12, the “IFN-γ … with no peptide subtracted” value is reported as 122 pg/mL.
